We go through one compound from US20220273823A1, “THERANOSTIC CONJUGATES” (Ariel Scientific Innovations Ltd., priority 2019, published 2022).

In data set [1] the test system is Panc-1. In words: XTT cell survival assay (growth inhibition), Panc-1. It is filed as cell-based, human. To be noted: Panc-1, XTT, up to 25 μM. How it is done:
The cytotoxicity of the peptide-drug conjugates was determined by measuring the mitochondrial enzyme activity, using a commercial XTT assay kit. All samples were prepared in PBS pH 7.4 contained 3% DMSO. The Cells were cultured in micro wells at a concentration 5-10×10^4 cells/well. The cells were washed and fresh cell medium containing different concentrations (up to 25 μM) of the conjugates were added and the cells were incubated for 10 minutes. The cultures were washed and then given a fresh medium and cultured for 48 hours and 72 hours. At the end of the second incubation, XTT reagent was added and the cells were re-incubated for additional 2-4 hours. During that time the absorbencies in the wells were measured with a TECAN Infinite M200 ELISA reader at 480 nm and 680 nm. The difference in the absorbencies measurements at these two wavelengths was used for calculating the percentage Growth Inhibition (GI) in test wells compared to two controls: cells that were exposed to the medium and solvent, and those which were exposed to a solvent-free medium. All the tests were done in triplicate.
Background: Tetrazolium assays rely on reduction of a dye to a coloured formazan, in cell work by metabolically active cells.

Data set [2] can be described thus: Absorption and emission spectra of XCy, XCy-CLB and OCTA-G-XCy-CLB in PB and CM. The class given is physicochemical. To be noted: for λmaxFl: λex 650 nm. How it is done:
The absorption and emission spectra of XCy, XCy-CLB and OCTA-G-XCy-CLB were investigated in two different conditions, 10 mM phosphate buffer pH 7.4 containing 10% methanol (PB) and cell medium pH 7.4 containing 10% methanol (CM) (see, Table 1 below). CM was taken as a model of normal physiological conditions during drug delivery in the experiments with cells. A RPMI-1640 standard cell medium that contains 50 mL fetal bovine serum (FBS), 5 mL penicillin (10,000 U/mL), 5 mL streptomycin (10 mg/mL), 5 mL of 200 mM glutamine, and 5.3 mg/L phenol red indicator was utilized. FBS contains enzyme aspartate-aminotransferase that facilitates the ester bond cleavage.
(§1) Absorption spectra were recorded on a Jasco V-730 UV-Vis spectrophotometer and the fluorescence spectra were measured on Edinburgh FS5 spectrofluorometer. The absorption and fluorescence spectra were measured in 1-cm quartz cells at about 0.5 μM dye concentrations in PB 10 mmol buffer pH 7.4 at 25° C. and cell medium pH 7.4. Excitation wavelength was 650 nm. All the solutions were filtered in PVDF 0.45 μm filter before taking spectrum.

Data set [3] can be described thus: Time-dependent absorption/fluorescence CLB cleavage profiles of XCy-CLB and OCTA-G-XCy-CLB in PB and cell medium. The class given is in vitro ADME. As to conditions: read-out: CLB release half-life τ1/2 (converted). On the procedure: To estimate the rate of the CLB release, the time-dependent absorption and fluorescence spectra of XCy-CLB and OCTA-G-XCy-CLB were measured in PB and CM (see, FIGS. 5A-H). With respect to time, the absorption band at about 600 nm decreases, a new band at about 680 nm increases and a fluorescence band subsequently appears at ˜708 nm (λex=650 nm).
Based of the time-dependent absorption and emission spectra, corresponding drug cleavage profiles were obtained (see, FIGS. 6A-B) and the drug release rates were quantified by half-lives (τ1/2). The cleavage profiles and half-lives obtained spectrophotometrically and spectrofluorometrically almost coincide. […] The release of CLB from OCTA-G-XCy-CLB in CM (τ1/2˜25 min) is […] faster than that in PB τ1/2 ˜2.5 h. Thus, the drug release for both XCy-CLB and OCTA-G-XCy-CLB in CM is much faster compared to PB. The obtained half-lives of the ester bond cleavage in these media were found in good agreement with some reported data. Linkage of OCTA to the conjugate accelerates the drug release by factor of 6 in PB and 1.3 in CM.
as §1

Data set [4] can be described thus: Real time fluorescence microscopy monitoring of CLB release in Panc-1 cells. The class given is cell-based. To be noted: human, pH 7.4, Panc-1, 10 min incubation with 10 μM, 37° C., read-out: CLB cleavage half-life τ1/2. How it is done:
(§2) In the next step, the inventors investigated the performance of OCTA-G-XCy-CLB in real time monitoring of drug delivery and drug release into human pancreatic cancer cell line (Panc-1). As a negative control, Chinese hamster ovary cell line (CHO) was employed. Panc-1 contains overexpressed somatostatin receptors SSTR-2 and SSTR-5 while the CHO has the decreased number of these receptors. Panc-1 and CHO were incubated at 37° C. for 10 min with 10 μM OCTA-G-XCy-CLB in PBS pH 7.4 containing 3% DMSO and washed thoroughly with PBS pH 7.4 to remove excess conjugate. Then the fluorescence microscopy images were taken over time (FIGS. 7A, B). The fluorescence intensities for both cell lines gradually increase over time signaling the CLB release. […]
(§3) To monitor drug release, Panc-1 and CHO cell lines were grown in six-well culture plates and then washed with PBS (pH 7.4) two times after that incubated for 10 min with 10 μM OCT(N)-G-XCy-CLB in PBS pH 7.4 containing 3% DMSO. […] The washed cell samples were resuspended in PBS and immediately analyzed the fluorescence changes by using fluorescent microscope. […]
(§4) The band intensities in a representative experiment were quantified by creating region of interest (ROI) around each image and the relative fluorescence intensity of each sample was measured (via the “Measure” function) with Image J software.

A short description of data set [5]: Real time fluorescence microscopy monitoring of CLB release in CHO cells (negative control). The class given is cell-based, Chinese hamster. As to conditions: hamster, pH 7.4, 10 min incubation with 10 μM, 37° C., read-out: CLB cleavage half-life τ1/2 (converted). How it is done: as §2, §3, §4
The mark [6] stands for this setting: CM: cell medium pH 7.4 containing 10% methanol.
Where [7] appears, read: PB: 10 mM phosphate buffer pH 7.4 containing 10% methanol.

SMILES strings stand for the structures. Read-outs that look alike come from different tables or passages of the source.

As to `C[C@@H](O)[C@H](NC(=O)[C@@H]1CSSC[C@H](NC(=O)[C@H](Cc2ccccc2)NC(=O)CCCNC(=O)CCCCC[N+]2=C(/C=C/C3=C4Oc5cc(OC(=O)CCCc6ccc(N(CCCl)CCCl)cc6)ccc5C=C4CCC3)C(C)(C)c3ccccc32)C(=O)N[C@@H](Cc2ccccc2)C(=O)N[C@@H](Cc2c[nH]c3ccccc23)C(=O)N[C@@H](CCCCN)C(=O)N[C@@H]([C@@H](C)O)C(=O)N1)C(N)=O` [OCTA-G-XCy-CLB], the “Growth Inhibition (GI) / toxicity” value in data set [1] was “significantly elevated growth inhibition compared to CHO”. Further, the λmaxAbs in data set [2] (setting [6]) and in data set [2] (setting [7]) was 604 nm each time. For the same compound, the λmaxFl result in data set [2] (setting [6]) and in data set [2] (setting [7]) was “No fl” in each case. This compound also displayed an absorption maximum in data set [2] (in PB and CM) of roughly 600 nm. Besides, the fluorescence result in data set [2] (in PB and CM) was “not detectable”. Besides, the half-life at 0.5 μM in data set [3] (bovine, cell medium (contains esterase), in CM (cell medium pH 7.4, esterase present)) was roughly 25 min; in data set [3] (phosphate buffer (PB), in PB pH 7.4) it was roughly 150 min. Further, the half-life at 10 μM is roughly 25 min in data set [4] and roughly 150 min in data set [5].
